In the NTF2 design screens of Basanta et al. (2020) one finds protease stability score data, which are given here for 47 sequences.

This data set can be described thus: protease stability score; higher = more stable; yeast display proteolysis, trypsin and chymotrypsin.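 Further: relative to predicted unfolded state with 0 unfolded-like and 1 meaning tenfold more protease.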
Take “NERKKFIEELARLYFKWWLTGDFENLLRNADPNTRIDVNGREIIGREKFVEELREHVDKFKNIREDLHDMDLQGDKVILHIRMNVDGKTIEVRVEIFVINGQIRSESWRFE”: the protease stability score was 1.34. “NERTEEIEEAMERMLEWWRTGNFEDINKNLDPNMRTHVFIDGREVLFHGRELMLEIFDRMGVDHIEVTHFDVIGNKVEVHSRSHQGDKHVDIKLVLEKIDGRWILSQIHIRIE” had a protease stability score of 1.94.

In turn, “NESEELYRIALELKRETDKTGDEEIFRKLMDPSTRLEVDGRIWHGREAVEVFIRRFDHLHRFEVKDTRVFDGQVQIEGELDSTVGDKRLNVHIEVFAIKFDGRWRLKSVRVE” registered a protease stability score of 1.58. For “NETEELLRRMIEDNLRAMLTGDEERIRKLADPNVRNHINGRTHVGREELAHVFHRIFEEWRIDHMTLRDSDTQGEFIILHYIFDIRFDGRRQELEVEIIFYKIDGRWILHKITFK”, the protease stability score turned out to be 0.75. With “NEVDEWVEEAVHLLEEILETGDFRELSNYFDPRVRIDINGRDYHGRELALEQLLRWIEDLGVKHFDHYEIHDREIQGEKVNLNIEITLTFDGRRHTIHHNFHMEKVNGKWVIESIHIR” the figure was 1.19. “NEVEDEIKHLLEHLLHSHDTGDWHDLVRLADPNVRVNINGKHFHGREDVEEVIKRLGIKHIRIHHVEVQGDKIHIDGNMHFDGRVYETHIDAKKIDGRWIMHNLEVR” displayed a protease stability score of 1.4. “NEWKEKFERFTRLLLTALMTGNEELLTKMVDPHVKVDIIINGQHIEHHGMERVIEMLTQLRVDRWRIKHIDIQGDKLHVNIHLDIKYDGRREETRTEIRLIIYDGVVHEIEIHLH” displayed a protease stability score of 1.99.

The sequence “NEWQEILLRISEKILKDLFTGNEEVWEKLVDPDAQVHINGKEVHGREEALHFLKELKDELRVEHLFIRDVKLQGDKVSLTSESRGNVNGVRRDMKVEIIVIVINGRVKHEKFIII” registered a protease stability score of 1.37. In the case of “NHDEEHLKRLLEDEREMLETGNEDEIRRLLDPHVRLDIDGRNIHGREEVAKWMVKLALRVDVFIIRVKRFHIQGDYIYFDTHIEEIVNGQHISFDVMIIIWKYNGRWLIHSIIVR” it was 1.58. In the case of “NHDEEKTHEFKEKWMKDVTTGNEEEISKLMDPNAKIVVNGREYHGREKMWETIHRLLKILGISRVEVRIESVHIYDGRIEIHMRVHAENHESHIIVHVEKIDGRWSSKHLRID” it was 0.968. In the case of “NHEEEERHETFRIFLESVRTGDWKNTEKLLDPNARQVWNGKVLHGRESVIEVMRELRVDSLDVKSFDIQGEKAIMHGESEGVFNGKRLNMTLETHLVKVDGKWFLRELVII”, the protease stability score turned out to be 1.23. In the case of “NHEEEHAKTLFEEWLRVLLTGDWKMFSHLADPHTRIHIGNKDIHGRDLFVELVIRELEEIRVILIVEELSAQGDKSRMRTRLIIRQGEFEHRTELRLEIVFVDGKFTSIHLRHK” it was 0.599. In turn, “NHLEEVKDLAIELSWKLMHTGNEELSDRNADPNTRLEFNGVEFVGREWFRQFISEMGVKHIRIDDIDMFDGRMRLDGTFNFNGQEIKVTVFTRKVDGRWRIKSLKFD” showed a protease stability score of 1.6. In the case of “NHQQIAFHFLWDIVEYLLMTGDEHILEKYADPTVKTLVDGRELHGREDVIRFFHEMFKRIDHIQDVKLHDYRFQGNKVEIDSRIIGTIDGQRDVITVTWRVLKVDGRWLIHTVELH” it was 1.69; in that of “NKHERDAEHFIKEWWHDVHTGDEDHYLKRLDPNMRVDINGQEFHGREKVLTFFHEHSRHLGIDHLIIDHVRIRVQGNKIEEEVEGENVFNGKRLEVRFHFVARKIDGRWELEHLTVRIS”, 0.724. In the case of “NKMDEYAYKMLELWLEAFLTGDFEFIEKNLDPHVRSRINGVELIGRHLYLEMVRREMEEIRVKDVHPRRVEIIDGVVHFHGEWNGQVNGRETHKEHEVEIIVVNGRLKSVIFRIR” it was 1.27; in that of “NKMMEEIHHWLRLLIENEITGDEEKSLHLADPEARIDFDGVEIHGWERFLKFVEEKLKLLGARVEDIKIHDYRIIDGRLHIDSRVHIEINGVRQTREREIVSRKVNGRWLVNSLHFR”, 0.607; in that of “NMDEKLKRWAIEDHIKSDETGDENMKEHYMDPNVRIDIGDYELHGREAAIRDIRRIRHEMGVKVMHVEIEHVDVQGEKIRIHSRLIFEINGKEVRHETNIIYSKFDGRWVLKHESIK”, 0.102. With “NREDRELEDFIWEILEAWRTGDEDEHHRLLDPHTRHHFNGRVSHGREMVEYIFKQFDHIHRFEYRDFSVQGNKAHVFAQVDVRIGDKIITFDVTIEVEKVNGRWVLRELSIH” the figure was 1.31. “QDIDHQLERAVKEILETFITGDESLASHLFDPDVRVIQGDKHIHGREEVTKVFYEFVKRADHVEIRMREVESQGDIIDIETELILRIGDKEVRHRVRLIVVKYNGKWHIKSMEVD”: the protease stability score was 2.72. In the case of “QEDEDFVRWALHVFMRYVLTGDEESLERLLDPDVRITVGNKHLHGMENATNELRHMSKQVDHIHDLRFHDVRSINGRIHETGIDDGIINGRRIHRESILVIEKVNGRWHFHSIRVL” it was 0.836; in that of “QEDEKLADEVVERIAHDIHTGDEDSLRHLMDPHVRLQVGDKRYIGRESVLEFLRQLRIEVEDVKIHDIHVVNGQMHSDTRIHGRIFVNGRDIETTLRSKHILLKYDGKWLWHSWHIH”, 1.31. With “QEDRERAERIINELMENELTGDEDRLRELADPRVRVEYDGQEHIGMELRSTWIKEMRFDHIHVDIDEFEFQGNKIHIKARFHIDVNINGRKRRYTVETFLVMKKINGVWFIKDIVFH” the figure was 1.36; with “QEEEEFVRKFVHEVIRALMTGDEHRMHELLDPHVISSRHIGDKHVHYHGREEVLRHLHEWLTHLRIKSLEIRSHKAFDGRMIVHGTLFGQQGDKDVEFEVIIDLEVINGRIKHFHVELR”, 1.32; with “QEELDIAREMIKMWTHHLETGDEEVTKHLADPTTRFIIDGVTYHGMHNTVRLWLEIRSHSRIRIRFVEVQGNKVNSDVELEYDLIVGEKTDTIIRRSHLYLHKVDGRWRIKEIEFR”, 1.12. In the case of “QEYDEHIEELWRDFVHAMITGDEDRLSELMDPDTRILVGDKHLVGWDRALRFLHEHIREIRPTDFKLRDIRFFDGRIHVDTEMRLVVNGQEVHKKTHLIVYKYDGRWHIEAIIEH” it was 2.24; in that of “RDEDEVVDHIARLIVEAWRTGDEDWLKKMADPNVKQHIHIDGKTEINHGREEMIHQLERLHRKLGVDHHHLKSSTVIGDKIKIHMEERIGDFSIFVHVEFIVINGRMKEIRISIERE”, 0.931. “RDEDHELKEMRRMIHEIIMTGDEDKWKKMADPHVQLHIGDKHHHGRDHVSRILTELRVHHFDVEHIHHEFINGRATLRIEGTLHGIINGVEKKVETEIRIIIIKFNGVWYIESQEFHVI” gave a protease stability score of 0.492. In the case of “RDEDRDRHHAWREFERIMLTGDWRESEKLIDPHVRLDIDGRRHHGMEIYSTLLYHISTRADHIRVILDDIKVQGEKVEVDTIIDIHVGDKHIHIKTHIVASKINGRWFLHSLKID” it was 0.929; in that of “RDEEEEARRMMEIFLEDVRTGDEDSLKELADPNVKSEINGVELVGREEVLKTLREILRELGVSNVEVRLHRIHVYDGRAHIDGRLNVNGRELEMHVDMEKVDGRWRIRRIELR”, 2.27. In the case of “RDEEEYAHRVLELWRFILETGDEDTLYELADPNVRFKFLQGNKEIHRHGRERMVEEIRTRREELGVKHIHLEHVEVWNGVVHLRVVVHFNGKELRSRIIIVVIDGVIKEIEIREE” it was 1.04; in that of “RDEESHLKHLAERIMKSWETGDEHTLRHLFDPNTRSHVEVGDKRWSFIGMENFDRWFRELHEEMGANHTTVHDTKIQGNKLTMDTRLLVGDKEIRTRLIFHIVDGRITHIIIKLE”, 1.31; in that of “RDIEEINKRALESWKHALETGDEDTMEELLDPHVRVEDEHEMHHGRSAFHLWIKRVDHFRSLHIRETRIVGDKVDNNVEVDGTINGQDRLIEIRLVLVKFNGKWKFRSIHFK”, 1.38.

As for “RDIRELTLMMTKLIRKTDKTGDPRIAHELADPHYRFDFDGVEYHGREIVQHWMEKYPNVRFKVRHVDIVGDKARIEGTDNVDGQEIDTEYRVSKVDGRWHLEEIIFR”, the protease stability score came to 0.487.

The sequence “RDKERMVHFIANYVLHSVLTGDWKMLFDLLDPSMRLEIGEKDSHGRENAEKLLHEFLEKLGADHTDIRRSHVTFQGDKIIIIINTEIDINGVRHEIWVRVIILKIDGKWVLESIRIEIR” registered a protease stability score of 1.54.

The sequence “RDLDEIARHVIELWKETYETGDERHLRELLDPNMRVEVNGVESHGREEMMKHMVKYAREIRITEIIDRDTDSQGNKLHIHGEIIVEQGDKKHRYTLDVTFFVVDGRIKHLHFRSK” registered a protease stability score of 1.2. In the case of “RDMEHIMKELIHFVLHAVMTGDEEKMRQYADPHVKLNYNGVEVVGMEEILKIWRHIRIEIEDHTVEHISVVDGKLRSDTRVDVHIEFNGRHIRENLHTHVIIYKVDGRWVFKEVRIK” it was 1.84; in that of “RDSEEKDKIFLSIVESAILTGDPETSEKMADPNVRIDFNGKDLVGREDYHRFVKRWLEEARFHKLVIHELRHVDGRMDSHTQEIVDIDGRRYTHDTHIIMLKIDGRWILHSKTVR”, 0.986. In the case of “RDTEETVENASKRWVRTMETGDEDVLHRLLDPHVRVEAENHEIHGREIVSTHIREILEKLGMTIHIHLKDVRVQGNKAEIDMHIEYIIDGRITSHDYTLINRKINGRWLVERVIIN” it was 0.31. “RDVEHLLEKWMEDHMEALHTGDEDRIHELLDPHVRVHIDGVNLHGRERAVEFMVRSLRELGIKHIKLDVEDVEVQGEKVIIDLRVNLDYDGREHRDKEIIILLKIDGKWVIEEVRRG” displayed a protease stability score of 1.07. In the case of “REDDEMSEEANRLLHELVRTGDFEQLIKNMDPNTRLRQGDKHFHGREEYEKHWRELLERAGLERVELHIDDIRVFNGVAHINGTLRIGDKVMEVRLILTKFNGKWIFTSMEIH” it was 1.26; in that of “REDDERIDEMVELIFHWEQTGDEEKVYNNMDPHVRIDYNGRELHGWKKFTEELRLIYEEMRLKHIHISHQTIQGEKAIVHVELEGQVGDKRYIHRREIIVLKIDGKWIIKMVRFV”, 1.49; in that of “REDEDAVREWALKFLESSLTGDEHFLKNLMDPHARLVIGDKHFHGREEVVRTWREFLTKFKNVRHDLHDINIQGDKVDVVENLVFDGVRTRTRITMRKVDGRWVITDIVIE”, 2.08. For the sequence “REDEEFAIHMFLNLIRWLMTGDEEQLEELADPDTKYHQGDKTLHGREEFLKWFHLMHKWLGIKHIEMRITDLRAVDGRVESEVSVDEHYDGRTKRYRTIIIVNVVNGKLKSEERHID”, the protease stability score came out at 1.22.

The sequence “REDEEHTKELLDAWQEAVETGDEDFILELFDPHVRSQVGDKERHGRHSFLELLRRLLEELGFDHVQFHITHREIQGDKITVETRLIFEYGDKRLEVQVEVEVKKINGRWYIHSVRWK” returned a protease stability score of 1.87. In the case of “REDEEITHKLLELLLTVIRTGDEQEMLNLLDPNTRHDVNGKHLHGRETAHRLFHEWSRHMRIHDLEIHDEKKIGNKVHIDGRLDGHIDGKREKIEVEFVIVKIDGRWVINSMTIK” it was 0.931. In the case of “REDEELVKQVVKDFDHAVETGDEDRLRELLDPDVRISQGDKEFHGREDYELHLRQWRYENHRVHDVRIYGDKARIHGHLHLKIGDKHLEVETILILHKVNGRWRVRHLEIR” it was 1.83.
